How the values were obtained:
Experiment in all cases: cell-based or functional assay
[1] = biological target: SARS-CoV-2 Omicron BA.2.75 假病毒 S蛋白 (SARS-CoV-2 (Omicron BA.2.75))
SARS-CoV-2 Delta 假病毒 S蛋白 = SARS-CoV-2 Delta 假病毒 S蛋白 (SARS-CoV-2 (Delta))
[2] = biological target: SARS-CoV-2 Omicron BA.4/5 假病毒 S蛋白 (SARS-CoV-2 (Omicron BA.4/5))
[3] = biological target: SARS-CoV-2 Omicron BA.1.1 假病毒 S蛋白 (SARS-CoV-2 (Omicron BA.1.1))
SARS-CoV-2 Alpha 假病毒 S蛋白 = SARS-CoV-2 Alpha 假病毒 S蛋白 (SARS-CoV-2 (Alpha))
[4] = biological target: SARS-CoV-2 Omicron BA.1 假病毒 S蛋白 (SARS-CoV-2 (Omicron BA.1))
SARS-CoV-2 Beta 假病毒 S蛋白 = SARS-CoV-2 Beta 假病毒 S蛋白 (SARS-CoV-2 (Beta))
[5] = biological target: SARS-CoV-2 Omicron BA.2 假病毒 S蛋白 (SARS-CoV-2 (Omicron BA.2))

B1: 沙贝病毒广谱人源中和抗体74 (antibody, V domains shown)
VH: QVQLVQSGAQLKKPGESLKISCKGSGYNFSRYWIAWVRHMPGKGLEVMGIIYPDDSDTRYSPSVRGQVTISADKSTSIVYLQWSSLKASDTGIYYCARFGAGMTGMPRYFDTTRWFDPWGQGTQVTVSS
VL: QSVLTQPPSVSGAPGQRVTISCLGGSSNIGAGYDVHWYQHLPGAAPKLLISGNSNRPSGVPARFSGSKSGTSASLAITGLQAEDEADYYCQSYDNDLSQVFGGGTKLTVLG
[1]
  IC50, 假病毒中和: 1.7 µg/mL
SARS-CoV-2 Delta 假病毒 S蛋白
  IC50, 假病毒中和: 1.7 µg/mL
[2]
  IC50, 假病毒中和: 2.81 µg/mL
[3]
  IC50, 假病毒中和: 0.2 µg/mL
SARS-CoV-2 Alpha 假病毒 S蛋白
  IC50, 假病毒中和: 0.76 µg/mL
[4]
  IC50, 假病毒中和: 0.91 µg/mL
SARS-CoV-2 Beta 假病毒 S蛋白
  IC50, 假病毒中和: 1.62 µg/mL
[5]
  IC50, 假病毒中和: 3.49 µg/mL
